Patent US20120171195A1

Legend:
HLA-B*3901 (B39) (human) = HLA-B*3901 (B39) (human) (UniProt P01889); assay: Luminex single-antigen beads; MEM-E/02 1/600; serum Mi127 1/100
[1] = molecular target: HLA-Cw*0401 (Cw4) (human); assay: as above
HLA-B*1516 (B63) (human) = assay: as above
HLA-B*5901 (B59) (human) = assay: as above
[2] = molecular target: HLA-Cw*1502 (Cw15) (human); assay: as above
[3] = molecular target: HLA-Cw*1802 (Cw18) (human) (UniProt P10321); assay: as above
HLA-B*0801 (B8) (human) = HLA-B*0801 (B8) (human) (UniProt P01889); assay: as above
HLA-A*3201 (A32) (human) = assay: as above
HLA-A*3301 (A33) (human) = assay: as above
[4] = molecular target: HLA-Cw*0801 (Cw8) (human) (UniProt P10321); assay: as above
HLA-A*2403 (A24) (human) = assay: as above
HLA-B*5102 (B51) (human) = assay: as above
HLA-A*3002 (A30) (human) = HLA-A*3002 (A30) (human) (UniProt P04439); assay: as above
HLA-B*1513 (B77) (human) = assay: as above
HLA-B*2708 (B27) (human) = HLA-B*2708 (B27) (human) (UniProt P01889); assay: as above
HLA-B*4801 (B48) (human) = HLA-B*4801 (B48) (human) (UniProt P01889); assay: as above
HLA-B*1301 (B13) (human) = assay: as above
[5] = molecular target: HLA-Cw*1203 (Cw12) (human) (UniProt P10321); assay: as above
[6] = molecular target: HLA-Cw*1701 (Cw17) (human); assay: as above
HLA-Cw*0304 (human) [7] = assay: as above
HLA-A*2901 (A29) (human) = HLA-A*2901 (A29) (human) (UniProt P04439); assay: as above
HLA-B*5703 (B57) (human) = assay: as above
HLA-A*2501 (A25) (human) = assay: as above
HLA-B*4002 (human) = HLA-B*4002 (human) (UniProt P01889); assay: Luminex beads; MAb 1/1600; competitor IgG-free serum
HLA-Cw*0302 (human) = HLA-Cw*0302 (human) (UniProt P10321); assay: as above
HLA-Cw*0702 (human) = HLA-Cw*0702 (human) (UniProt P10321); assay: as above
HLA-B*5101 (human) = assay: as above
HLA-Cw*1701 (human) [8] = assay: as above
HLA-Cw*1502 (human) = assay: as above
HLA-B*1402 (human) = assay: as above
HLA-B*2708 (human) = HLA-B*2708 (human) (UniProt P01889); assay: as above
HLA-B*5201 (human) = assay: as above
HLA-B*5801 (human) = assay: as above
HLA-Cw*0801 (human) = HLA-Cw*0801 (human) (UniProt P10321); assay: as above
HLA-B*1502 (human) = assay: as above
HLA-Cw*0304 (human) [9] = assay: as above
HLA-Cw*1402 (human) = HLA-Cw*1402 (human) (UniProt P10321); assay: as above
HLA-B*4101 (human) = HLA-B*4101 (human) (UniProt P01889); assay: as above
HLA-Cw*0602 (human) = HLA-Cw*0602 (human) (UniProt P10321); assay: Luminex beads; MAb 1/100; PBS only
HLA-Cw*1701 (human) [10] = assay: Luminex beads; MAb 1/100; PBS only

## murine monoclonal antibody MAb MEM-E/02
HLA-B*3901 (B39) (human)
  % inhibition: 16%
  MFI: 1480 MFI
[1]
  MFI: < 500 MFI
HLA-B*1516 (B63) (human)
  MFI: 1840 MFI
HLA-B*5901 (B59) (human)
  % inhibition: 8%
  MFI: 848 MFI
[2]
  MFI: < 500 MFI
[3]
  MFI: < 500 MFI
HLA-B*0801 (B8) (human)
  MFI: < 500 MFI
HLA-A*3201 (A32) (human)
  MFI: < 500 MFI
HLA-A*3301 (A33) (human)
  MFI: 3170 MFI
[4]
  MFI: < 500 MFI
HLA-A*2403 (A24) (human)
  % inhibition: 36%
HLA-B*5102 (B51) (human)
  MFI: 2520 MFI
HLA-A*3002 (A30) (human)
  MFI: < 500 MFI
HLA-B*1513 (B77) (human)
  MFI: < 500 MFI
HLA-B*2708 (B27) (human)
  MFI: 2430 MFI
HLA-B*4801 (B48) (human)
  % inhibition: 16%
HLA-B*1301 (B13) (human)
  MFI: < 500 MFI
[5]
  MFI: < 500 MFI
[6]
  MFI: < 500 MFI
HLA-Cw*0304 (human) [7]
  MFI: < 500 MFI
HLA-A*2901 (A29) (human)
  MFI: < 500 MFI
HLA-B*5703 (B57) (human)
  MFI: 917 MFI
HLA-A*2501 (A25) (human)
  % inhibition: 36%

## murine monoclonal antibody (MAb) MEM-E/02
HLA-B*4002 (human)
  MFI: 403 MFI
HLA-Cw*0302 (human)
  MFI: 335 MFI
HLA-Cw*0702 (human)
  MFI: 295 MFI
HLA-B*5101 (human)
  MFI: 281 MFI
HLA-Cw*1701 (human) [8]
  MFI: 392 MFI
HLA-Cw*1502 (human)
  MFI: 317 MFI
HLA-B*1402 (human)
  MFI: 301 MFI
HLA-B*2708 (human)
  MFI: 272 MFI
HLA-B*5201 (human)
  MFI: 337 MFI
HLA-B*5801 (human)
  MFI: 485 MFI
HLA-Cw*0801 (human)
  MFI: 865 MFI
HLA-B*1502 (human)
  MFI: 350 MFI
HLA-Cw*0304 (human) [9]
  MFI: 370 MFI
HLA-Cw*1402 (human)
  MFI: 432 MFI
HLA-B*4101 (human)
  MFI: 392 MFI
HLA-Cw*0602 (human)
  MFI: 4040 MFI
HLA-Cw*1701 (human) [10]
  MFI: 3360 MFI
